Experimental data taken from patent publication US20250346683A1 (AstraZeneca / MedImmune, published 2025).

Target: T1, human endothelial lipase (EL) (human, UniProt Q9Y5X9 21-500)
T1 construct: also called human EL; LIPG gene product
T1 sequence (looked up): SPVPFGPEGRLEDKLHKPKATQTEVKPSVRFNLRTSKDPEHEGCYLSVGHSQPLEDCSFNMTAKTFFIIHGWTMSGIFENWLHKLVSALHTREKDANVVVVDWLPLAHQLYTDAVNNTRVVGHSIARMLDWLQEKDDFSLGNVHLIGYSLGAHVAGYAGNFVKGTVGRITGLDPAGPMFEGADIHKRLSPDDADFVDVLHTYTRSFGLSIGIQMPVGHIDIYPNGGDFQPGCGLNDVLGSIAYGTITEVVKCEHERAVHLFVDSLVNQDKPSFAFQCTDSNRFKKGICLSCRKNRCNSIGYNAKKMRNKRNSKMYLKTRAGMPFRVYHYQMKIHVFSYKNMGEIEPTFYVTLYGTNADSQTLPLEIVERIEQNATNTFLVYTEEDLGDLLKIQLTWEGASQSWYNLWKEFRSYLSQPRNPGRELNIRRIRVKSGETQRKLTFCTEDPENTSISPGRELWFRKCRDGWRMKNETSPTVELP
Assay: sandwich ECL immunoassay (MSD): MEDI5884 coated as capture, EL from plasma or reference standard as analyte, biotinylated anti-human EL antibody (OriGene) as detection
Protocol: Sandwich immunoassay was developed for the detection human EL utilizing ECL readout. An MSD (MesoScale Discovery) plate was coated with 5 μg/ml of MEDI5884, at 50 μl/well, incubated at 4° C. on a flat surface and subsequently washed 3× with 300 μl/well of ELISA Wash Buffer. The assay plate(s) were blocked with 150 μl/well of I Block Buffer (IBB) for ≥60 min on an orbital plate shaker at room temperature (RT). Reference standards (RS), quality control (QC) and negative control (NC), prepared in IBB, and test samples were added to the plates at 35 μl/well. Samples that had been previously tested determined the minimally required dilution ratio (MRD) as two (2) for plasma samples. The assay plate(s) were incubated at RT on a plate shaker with gentle shaking for 60 minutes±10 minutes. Unbound analyte was removed by washing the plate(s) with ELISA wash buffer. To detect the captured analyte, 1 μg/ml of biotinylated anti-human EL monoclonal antibody (OriGene) was added at 35 μl/well and incubated for an additional 60 minutes±10 minutes at RT on a plate shaker. Unbound detection antibody was removed by washing the plate(s). […] Plates were washed again and Read Buffer was added at 150 μl/well. Signal was read on a MSD sector imager instrument within 20 minutes of addition of the Read Buffer. […]

binding result: binds
B1: MEDI5884 (antibody, human IgG4 S228P, kappa, V domains shown)
VH: QVQLVQSGSELKKPGASVKVSCKASGYTFTNYALNWVRQAPGQGLEWMGWINTYSGVGTYAGEFKGRFVFSLDTSVSTAYLQISSLKAEDTAVYYCARRGFYGRRFFDVWGKGTTVTVSS
VL: DIQLTQSPSSLSASVGDRVTITCKASQSVDYDVDSYMHWYQQKPGKAPKLLIYAASNLASGVPSRFSGSGSGTDFTFTISSLQPEDIATYYCQQTIEDPPTFGGGTKVEIKR
notes: It was coated on the MSD plate as the capture reagent
